Data as given in patent US6602854B1, “Branched multimeric Apo A-I agonist compounds” (priority 1997, dated 2003).
Where no end group is shown, it is not given here. [ ]: non-standard residue; d: D form. Nal = non-natural residue; Aib = CC(C)(N)C(=O)O

Legend:
[1] = HDL cholesterol in rabbits after injection of phospholipid/peptide complexes; format: in vivo, Male New Zealand White rabbits
Method: Small discoidal particles consisting of phospholipid (DPPC) and peptide were prepared following the cholate dialysis method. The phospholipid was dissolved in chloroform and dried under a stream of nitrogen. The peptide was dissolved in buffer (saline) at a concentration of 1-2 mg/ml. The lipid film was redissolved in buffer containing cholate (43° C.) and the peptide solution was added at a 3:1 phospholipid/peptide weight ratio. The mixture was incubated overnight at 43° C. and then dialyzed at 43° C. (24 hr.), room temperature (24 hr.) and 4° C. (24 hr.), with three changes of buffer (large volumes) at temperature point. The complexes were filter sterilized (0.22 μm) for injection and storage at 4° C.
Male New Zealand White rabbits (2.5-3 kg) were injected intravenously with a dose of phospholipid/peptide complex (5 or 10 mg/kg bodyweight, expressed as peptide) in a single bolus injection not exceeding 10-15 ml. The animals were slightly sedated before the manipulations. Blood samples (collected on EDTA) were taken before and 5, 15, 30, 60, 240 and 1440 minutes after injection. The hematocrit (Hct) was determined for each sample. Samples were aliquoted and stored at −20° C. before analysis.
Plasma Lipids. The total plasma cholesterol, plasma triglycerides and plasma phospholipids were determined enzymatically using commercially available assays according to the manufacturer's protocols (Boehringer Mannheim, Mannheim, Germany and Biomerieux, 69280, Marcy-L'étoile, France).
Lipoprotein Profiles. The plasma lipoprotein profiles of the fractions obtained after the separation of the plasma into its lipoprotein fractions were determined by spinning in a sucrose density gradient. The fractions were collected and in each individual fraction the phospholipid and cholesterol content was measured enzymatically.

[2] = Circular dichroism: degree of helicity (free, SUVs, micelles, TFE); details: for He (%) free: percent helicity of free, unbound peptide; for He (%) SUVs: percent helicity of peptide-SUV complexes; for He (%) TFE: percent helicity of peptide-TFE solution; for He (%) mics: percent helicity of peptide-micelle complexes
Method: Far UV circular dichroism spectra were recorded between 190 and 260 nm (in 0.5 nm or 0.2 nm increments) with a AVIV62DS spectrometer (AVIV Associates, Lakewood, N.J., USA) equipped with a thermoelectric cell holder and sample changer. The instrument was calibrated with (+)-10-camphoric acid. Between one and three scans were collected for each sample, using 10 cm, 5 cm, 1 cm and 0.1 cm path length quartz Suprasil cells, respectively, for peptide concentrations of 10^−7 M to 10^−4 M. The bandwidth was fixed at 1.5 nm and the scan speed to 1 s per wavelength step. The reported data are the mean of at least 2 or 3 independent measurements.
After background substraction, spectra were converted to molar ellipticity (θ) per residue in deg. […] dmol^−1. The peptide concentration was determined by amino acid analysis and also by absorption spectrometry on a Perkin Elmer Lambda 17 UV/Visible spectrophotometer when the peptide contained a chromophore (tryptophane, dansyl, naphtylalanine).
CD spectra were obtained with free, unbound peptide (5 μM in 5 mM phosphate buffer, pH 7.4); with peptide-SUV complexes (20:1 EPC:Chol., Ri=30 and Ri=50); with peptide-micelle complexes (1-myristoyl-2-hydroxy-sn-glycero-3-phosphatidyl choline, Ri=100); and with free, unbound peptide in the presence of 2,2,2-trifluoroethanol (TFE) (5 μM peptide, 90% vol TFE).
The SUVs were obtained by dispersing the lipids (10 mM, 20:1 EPC:Chol., Avanti Polar Lipids, Ala.) in phosphate buffer (5 mM, pH 7.4) with bubbling N2 for 5 min., followed by sonication (1.5 hr.) in a bath sonicator. The homogeneity of the preparation was checked by FPLC.
The micelles were obtained by dispersing the lipid (6 mM 1-myristoyl-2-hydroxy-sn-glycero-3-phosphatidyl choline, Avanti Polar Lipids, AL) in phosphate buffer (5 mM, pH 7.4) with bubbling N2 for 5 min., followed by vortexing.
To obtain the peptide-SUV complexes, SUVs were added to the peptide (5 μM in 5 mM phosphate buffer, pH 7.4) at a phospholipid-peptide molar ratio (Ri) of 30 or 50.
To obtain the peptide-micelle complexes, micelles were added to the peptide (5 μM in 5 mM phosphate buffer, pH 7.4) at a Ri of 100.
All spectra were recorded at 37° C. The stability of peptide 4 (SEQ ID NO:4) as a function of temperature (both free in buffer and in micelles) was determined by recording spectra at a series of different temperatures.
The degree of helicity of peptide 4 (SEQ ID NO:4) as a function of concentration was also determined.
The degree of helicity of the peptides in the various conditions was determined from the mean residue ellipticity at 222 nm (Chen et al., 1974, Biochemistry 13:3350-3359) or by comparing the CD spectra obtained to reference spectra available on databases (16 helical reference spectra from Provencher & Glockner, 1981, Biochemistry 20:33-37; denatured protein reference spectra from Venyaminov et al., 1993, Anal. Biochem. 214:17-24) using the CONTIN curve-fitting algorithm version 2DP, CD-1 pack (Aug. 1982) (Provencher, 1982, Comput. Phys. Commun. 27:213-227, 229-242). Acceptable fit was determined using the statistical analysis methodology provided by the CONTIN algorithm.

Substance	Increase (%) in HDL cholesterol ([1]; 10 mg/kg as peptide/DPPC complexes, 15 min)	Increase (%) in HDL cholesterol ([1]; 10 mg/kg as peptide/DPPC complexes, 30 min)	Increase (%) in HDL cholesterol ([1]; 10 mg/kg as peptide/DPPC complexes, 60 min)	Increase (%) in HDL cholesterol ([1]; 10 mg/kg as peptide/DPPC complexes, 240 min)	He (%) free [2]	He (%) SUVs [2]	He (%) TFE [2]	He (%) mics [2]	Increase (%) in HDL cholesterol ([1]; 5 mg/kg as peptide/DPPC complexes, 15 min)	Increase (%) in HDL cholesterol ([1]; 5 mg/kg as peptide/DPPC complexes, 30 min)	Increase (%) in HDL cholesterol ([1]; 5 mg/kg as peptide/DPPC complexes, 60 min)	Increase (%) in HDL cholesterol ([1]; 5 mg/kg as peptide/DPPC complexes, 240 min)
PVLDLFRELLNELLEWLKQKLK [peptide 3]	84%	71%	60%	14.5%	70%	80%	95%	95%	–	–	–	–
PVLDLFRELLNELLEZLKQKLK (PVLDLFRELLNELLE[Nal]LKQKLK; not fully specified) [peptide 1]	–	–	–	–	77%	81%	69%	85%	24.3%	95%	40.7%	29%
215 (Ac-PVLDLFRELLEEWKQKLK-NH2) [compound 215]	–	–	–	–	28%	53%	68%	63%	–	–	–	–
193 (Ac-PVLDLFRELLEELKQKLK-NH2) [compound 193]	–	–	–	–	34%	87%	87%	88%	–	–	–	–
PVLDLFRELLNELWEALKQKLK [peptide 28]	–	–	–	–	82%	90%	81%	98%	–	–	–	–
240 (Ac-DWLKAFYDKVAEKLKEAF-NH2) [compound 240]	–	–	–	–	16%	59%	57%	68%	–	–	–	–
PVLDEFREKLNERLEALKQKLK [peptide 109, reference compound]	–	–	–	–	19%	23%	58%	45%	–	–	–	–
217 (PVLDLFRELLELLKQKLK) [compound 217]	–	–	–	–	52%	76%	70%	78%	–	–	–	–
PVLDEFREKLNEALEALKQKLK [peptide 94, reference compound]	–	–	–	–	18%	27%	63%	70%	–	–	–	–
160 (PVLELFENLLERLLDWLQKKLK) [compound 160]	–	–	–	–	65%	75%	61%	73%	–	–	–	–
91 (PVLDEFRELLNE[Aib]LEALKQKLK) [compound 91]	–	–	–	–	43%	–	100%	100%	–	–	–	–
